Measurements taken from US10973857B2, “Mesenchymal stem cell and use thereof for treatment of muscle injury and muscle-associated diseases” (EXOSTEM BIOTEC LTD., priority 2016, dated 2021).

B1: PDGFBB: growth factor (protein, UniProt P01127 82-190, looked up)
Platelet-derived growth …: SLGSLTIAEPAMIAECKTRTEVFEISRRLIDRTNANFLVWPPCVEVQRCSGCCNNRNVQCRPTQVQLRPVQVRKIEIVRKKPIFKKATVTLEDHLACKCETVAAARPVT
modifications: BB homodimer
notes: growth factor
B2: EGF: growth factor (protein, UniProt P01133 23-1207, looked up)
Pro-epidermal growth factor: PQHWSCPEGTLAGNGNSTCVGPAPFLIFSHGNSIFRIDTEGTNYEQLVVDAGVSVIMDFHYNEKRIYWVDLERQLLQRVFLNGSRQERVCNIEKNVSGMAINWINEEVIWSNQQEGIITVTDMKGNNSHILLSALKYPANVAVDPVERFIFWSSEVAGSLYRADLDGVGVKALLETSEKITAVSLDVLDKRLFWIQYNREGSNSLICSCDYDGGSVHISKHPTQHNLFAMSLFGDRIFYSTWKMKTIWIANKHTGKDMVRINLHSSFVPLGELKVVHPLAQPKAEDDTWEPEQKLCKLRKGNCSSTVCGQDLQSHLCMCAEGYALSRDRKYCEDVNECAFWNHGCTLGCKNTPGSYYCTCPVGFVLLPDGKRCHQLVSCPRNVSECSHDCVLTSEGPLCFCPEGSVLERDGKTCSGCSSPDNGGCSQLCVPLSPVSWECDCFPGYDLQLDEKSCAASGPQPFLLFANSQDIRHMHFDGTDYGTLLSQQMGMVYALDHDPVENKIYFAHTALKWIERANMDGSQRERLIEEGVDVPEGLAVDWIGRRFYWTDRGKSLIGRSDLNGKRSKIITKENISQPRGIAVHPMAKRLFWTDTGINPRIESSSLQGLGRLVIASSDLIWPSGITIDFLTDKLYWCDAKQSVIEMANLDGSKRRRLTQNDVGHPFAVAVFEDYVWFSDWAMPSVMRVNKRTGKDRVRLQGSMLKPSSLVVVHPLAKPGADPCLYQNGGCEHICKKRLGTAWCSCREGFMKASDGKTCLALDGHQLLAGGEVDLKNQVTPLDILSKTRVSEDNITESQHMLVAEIMVSDQDDCAPVGCSMYARCISEGEDATCQCLKGFAGDGKLCSDIDECEMGVPVCPPASSKCINTEGGYVCRCSEGYQGDGIHCLDIDECQLGEHSCGENASCTNTEGGYTCMCAGRLSEPGLICPDSTPPPHLREDDHHYSVRNSDSECPLSHDGYCLHDGVCMYIEALDKYACNCVVGYIGERCQYRDLKWWELRHAGHGQQQKVIVVAVCVVVLVMLLLLSLWGAHYYRTQKLLSKNPKNPYEESSRDVRSRRPADTEDGMSSCPQPWFVVIKEHQDLKNGGQPVAGEDGQAADGSMQPTSWRQEPQLCGMGTEQGCWIPVSSDKGSCPQVMERSFHMPSYGTQTLEGGVEKPHSLLSANPLWQQRALDPPHQMELTQ
modifications: Pro-epidermal growth factor

Tested on: MSCs
Assay: Protocol 3 differentiation of MSCs to hybrid cells with growth factors
Format: cell-based
Conditions: individually and in combination, as replacements or in combination with HGF and PDGF
Experimental: A shortened third protocol (Protocol 3) was examined and was also found to produce MSC-muscle cell hybrid cells. The MSCs were cultured in normal MSC culturing conditions followed by supplementation of the media for 24 hours with 5-AZA. The cells were than grown in media supplemented with 2% horse serum and HGF and PDGF for 2 weeks. […] The following growth factors were tested both individually and in combination as replacements or in combination with HGF and PDGF: EGF, IGF1, PDGFAA, PDGFBB, and VEGF. […] Additionally, the protocol could be halted by moving the treated MSCs to non-supplemented MSC media. Hybrid cells that were produced could thus be halted from further differentiation.
All three protocols were also performed with MSCs that had first undergone myogenic priming as described above.

| Molecule | production of hybrid cells from MSCs |
| --- | --- |
| B1 | found to produce hybrid cells |
| B2 | found to produce hybrid cells |
